According to the Human Domainome abundance scans (Beltran et al. 2025):
± gives the uncertainty stated by the source.

B1: Unconventional myosin-Ie, residues 1051 to 1108; numbered along this chain, Q12965 (parent)
chain: PQVPQCKALYAYDAQDTDELSFNANDIIDIIKEDPSGWWTGRLRGKQGLFPNNYVTKI

Variants of: B1
Assay: abundance fitness (aPCA) (normalised: wild type 0, dead -1); higher = more abundant; growth selection in yeast, the domain comes from the species named
Details: Homo sapiens

In order of falling abundance fitness:
1. PQVPQCKALYAYDAQDTDELSFNANDIIDIIKEDPKGWWTGRLRGKQGLFPNNYVTKI  0.147 ± 0.071
2. PQVPQCKALYAYDAQDTDELSFNANDIIDIIKEDPSGWWVGRLRGKQGLFPNNYVTKI  0.125 ± 0.075
3. PQVPQCKALYAYDAQDTDELSFNANDIIDIIKEDPSGWWMGRLRGKQGLFPNNYVTKI  0.052 ± 0.066
4. PQVPQCKALYAYDAQDTDELSFNANDIIDIIKEDPSGWWTGALRGKQGLFPNNYVTKI  -0.013 ± 0.039
5. PQVPQCKALYAYDAQDTDELSFNANDIIDIIKEDQSGWWTGRLRGKQGLFPNNYVTKI  -0.018 ± 0.049
6. PQVPQCKALYAYDAQDTDELSFNANDIIDIIKEDSSGWWTGRLRGKQGLFPNNYVTKI  -0.022 ± 0.039
7. PQVPQCKALYAYDAQDTDELSFNANDIIDIIKEDPQGWWTGRLRGKQGLFPNNYVTKI  -0.024 ± 0.063
8. PQVPQCKALYAYDAQDTDELSFNANDIIDIIKEDPGGWWTGRLRGKQGLFPNNYVTKI  -0.031 ± 0.047
9. PQVPQCKALYAYDAQDTDELSFNANDIIDIIKEDPDGWWTGRLRGKQGLFPNNYVTKI  -0.033 ± 0.039
10. PQVPQCKALYAYDAQDTDELSFNANDIIDIIKEDPSGWWTGELRGKQGLFPNNYVTKI  -0.049 ± 0.049
11. PQVPQCKALYAYDAQDTDELSFNANDIIDIIKEDPSGWWLGRLRGKQGLFPNNYVTKI  -0.058 ± 0.041
12. PQVPQCKALYAYDAQDTDELSFNANDIIDIIKEDPSGWWIGRLRGKQGLFPNNYVTKI  -0.059 ± 0.054
13. PQVPQCKALYAYDAQDTDELSFNANDIIDIIKEDPSGWWWGRLRGKQGLFPNNYVTKI  -0.062 ± 0.051
14. PQVPQCKALYAYDAQDTDELSFNANDIIDIIKEDPSGWWYGRLRGKQGLFPNNYVTKI  -0.07 ± 0.041
15. PQVPQCKALYAYDAQDTDELSFNANDIIDIIKEDPRGWWTGRLRGKQGLFPNNYVTKI  -0.073 ± 0.033
16. PQVPQCKALYAYDAQDTDELSFNANDIIDIIKEDPSGWYTGRLRGKQGLFPNNYVTKI  -0.074 ± 0.082
17. PQVPQCKALYAYDAQDTDELSFNANDIIDIIKEDPSGWWQGRLRGKQGLFPNNYVTKI  -0.075 ± 0.066
18. PQVPQCKALYAYDAQDTDELSFNANDIIDIIKEDMSGWWTGRLRGKQGLFPNNYVTKI  -0.075 ± 0.072
19. PQVPQCKALYAYDAQDTDELSFNANDIIDIIKEDPSGWWSGRLRGKQGLFPNNYVTKI  -0.082 ± 0.05
20. PQVPQCKALYAYDAQDTDELSFNANDIIDIIKEDPTGWWTGRLRGKQGLFPNNYVTKI  -0.085 ± 0.043
21. PQVPQCKALYAYDAQDTDELSFNANDIIDIIKEDVSGWWTGRLRGKQGLFPNNYVTKI  -0.085 ± 0.051
22. PQVPQCKALYAYDAQDTDELSFNANDIIDIIKEDRSGWWTGRLRGKQGLFPNNYVTKI  -0.094 ± 0.04
23. PQVPQCKALYAYDAQDTDELSFNANDIIDIIKEDPSGWFTGRLRGKQGLFPNNYVTKI  -0.114 ± 0.13
24. PQVPQCKALYAYDAQDTDELSFNANDIIDIIKEDNSGWWTGRLRGKQGLFPNNYVTKI  -0.115 ± 0.058
25. PQVPQCKALYAYDAQDTDELSFNANDIIDIIKEDPSGWWRGRLRGKQGLFPNNYVTKI  -0.123 ± 0.045
26. PQVPQCKALYAYDAQDTDELSFNANDIIDIIKEDPSGWWTGGLRGKQGLFPNNYVTKI  -0.125 ± 0.058
27. PQVPQCKALYAYDAQDTDELSFNANDIIDIIKEDPSGWSTGRLRGKQGLFPNNYVTKI  -0.138 ± 0.048
28. PQVPQCKALYAYDAQDTDELSFNANDIIDIIKEDPSGWWTGHLRGKQGLFPNNYVTKI  -0.15 ± 0.1
29. PQVPQCKALYAYDAQDTDELSFNANDIIDIIKEDPSGWWAGRLRGKQGLFPNNYVTKI  -0.175 ± 0.068
30. PQVPQCKALYAYDAQDTDELSFNANDIIDIIKEDPSGWITGRLRGKQGLFPNNYVTKI  -0.179 ± 0.061
31. PQVPQCKALYAYDAQDTDELSFNANDIIDIIKEDPSGWWTGFLRGKQGLFPNNYVTKI  -0.193 ± 0.28
32. PQVPQCKALYAYDAQDTDELSFNANDIIDIIKEDPSGWWEGRLRGKQGLFPNNYVTKI  -0.203 ± 0.092
33. PQVPQCKALYAYDAQDTDELSFNANDIIDIIKEDPSGLWTGRLRGKQGLFPNNYVTKI  -0.211 ± 0.3
34. PQVPQCKALYAYDAQDTDELSFNANDIIDIIKEDWSGWWTGRLRGKQGLFPNNYVTKI  -0.231 ± 0.05
35. PQVPQCKALYAYDAQDTDELSFNANDIIDIIKEDPSGWWTGDLRGKQGLFPNNYVTKI  -0.254 ± 0.072
36. PQVPQCKALYAYDAQDTDELSFNANDIIDIIKEDYSGWWTGRLRGKQGLFPNNYVTKI  -0.266 ± 0.1
37. PQVPQCKALYAYDAQDTDELSFNANDIIDIIKEDPFGWWTGRLRGKQGLFPNNYVTKI  -0.279 ± 0.064
38. PQVPQCKALYAYDAQDTDELSFNANDIIDIIKEDPEGWWTGRLRGKQGLFPNNYVTKI  -0.279 ± 0.065
39. PQVPQCKALYAYDAQDTDELSFNANDIIDIIKEDPMGWWTGRLRGKQGLFPNNYVTKI  -0.284 ± 0.19
40. PQVPQCKALYAYDAQDTDELSFNANDIIDIIKEDPSGWWHGRLRGKQGLFPNNYVTKI  -0.284 ± 0.16
41. PQVPQCKALYAYDAQDTDELSFNANDIIDIIKEDPSGWCTGRLRGKQGLFPNNYVTKI  -0.316 ± 0.076
42. PQVPQCKALYAYDAQDTDELSFNANDIIDIIKEDPLGWWTGRLRGKQGLFPNNYVTKI  -0.341 ± 0.05
43. PQVPQCKALYAYDAQDTDELSFNANDIIDIIKEDPYGWWTGRLRGKQGLFPNNYVTKI  -0.349 ± 0.093
44. PQVPQCKALYAYDAQDTDELSFNANDIIDIIKEDPSGWMTGRLRGKQGLFPNNYVTKI  -0.35 ± 0.13
45. PQVPQCKALYAYDAQDTDELSFNANDIIDIIKEDPSGWNTGRLRGKQGLFPNNYVTKI  -0.352 ± 0.11
46. PQVPQCKALYAYDAQDTDELSFNANDIIDIIKEDPSGWWTGILRGKQGLFPNNYVTKI  -0.356 ± 0.16
47. PQVPQCKALYAYDAQDTDELSFNANDIIDIIKEDPSGWATGRLRGKQGLFPNNYVTKI  -0.374 ± 0.071
48. PQVPQCKALYAYDAQDTDELSFNANDIIDIIKEDPSTWWTGRLRGKQGLFPNNYVTKI  -0.375 ± 0.09
49. PQVPQCKALYAYDAQDTDELSFNANDIIDIIKEDPNGWWTGRLRGKQGLFPNNYVTKI  -0.381 ± 0.12
50. PQVPQCKALYAYDAQDTDELSFNANDIIDIIKEDPSGWWNGRLRGKQGLFPNNYVTKI  -0.382 ± 0.11
51. PQVPQCKALYAYDAQDTDELSFNANDIIDIIKEDPSQWWTGRLRGKQGLFPNNYVTKI  -0.448 ± 0.099
52. PQVPQCKALYAYDAQDTDELSFNANDIIDIIKEDPSGWGTGRLRGKQGLFPNNYVTKI  -0.453 ± 0.039
53. PQVPQCKALYAYDAQDTDELSFNANDIIDIIKEDPSGWWTLRLRGKQGLFPNNYVTKI  -0.474 ± 0.18
54. PQVPQCKALYAYDAQDTDELSFNANDIIDIIKEDPSGWWFGRLRGKQGLFPNNYVTKI  -0.479 ± 0.18
55. PQVPQCKALYAYDAQDTDELSFNANDIIDIIKEDPSEWWTGRLRGKQGLFPNNYVTKI  -0.481 ± 0.049
56. PQVPQCKALYAYDAQDTDELSFNANDIIDIIKEDPSGWLTGRLRGKQGLFPNNYVTKI  -0.512 ± 0.08
57. PQVPQCKALYAYDAQDTDELSFNANDIIDIIKEDPSIWWTGRLRGKQGLFPNNYVTKI  -0.52 ± 0.24
58. PQVPQCKALYAYDAQDTDELSFNANDIIDIIKEDPSPWWTGRLRGKQGLFPNNYVTKI  -0.54 ± 0.095
59. PQVPQCKALYAYDAQDTDELSFNANDIIDIIKEDPSMWWTGRLRGKQGLFPNNYVTKI  -0.545 ± 0.12
60. PQVPQCKALYAYDAQDTDELSFNANDIIDIIKEDPSGWPTGRLRGKQGLFPNNYVTKI  -0.559 ± 0.049
61. PQVPQCKALYAYDAQDTDELSFNANDIIDIIKEDPSAWWTGRLRGKQGLFPNNYVTKI  -0.573 ± 0.043
62. PQVPQCKALYAYDAQDTDELSFNANDIIDIIKEDPSRWWTGRLRGKQGLFPNNYVTKI  -0.574 ± 0.053
63. PQVPQCKALYAYDAQDTDELSFNANDIIDIIKEDPSCWWTGRLRGKQGLFPNNYVTKI  -0.584 ± 0.059
64. PQVPQCKALYAYDAQDTDELSFNANDIIDIIKEDPSLWWTGRLRGKQGLFPNNYVTKI  -0.617 ± 0.095
65. PQVPQCKALYAYDAQDTDELSFNANDIIDIIKEDPSGWWGGRLRGKQGLFPNNYVTKI  -0.647 ± 0.086
66. PQVPQCKALYAYDAQDTDELSFNANDIIDIIKEDPSGWKTGRLRGKQGLFPNNYVTKI  -0.677 ± 0.32
67. PQVPQCKALYAYDAQDTDELSFNANDIIDIIKEDPSWWWTGRLRGKQGLFPNNYVTKI  -0.677 ± 0.13
68. PQVPQCKALYAYDAQDTDELSFNANDIIDIIKEDPSKWWTGRLRGKQGLFPNNYVTKI  -0.728 ± 0.082
69. PQVPQCKALYAYDAQDTDELSFNANDIIDIIKEDPSGWHTGRLRGKQGLFPNNYVTKI  -0.732 ± 0.22
70. PQVPQCKALYAYDAQDTDELSFNANDIIDIIKEDPSGWWTFRLRGKQGLFPNNYVTKI  -0.756 ± 0.37
71. PQVPQCKALYAYDAQDTDELSFNANDIIDIIKEDPSGWWTQRLRGKQGLFPNNYVTKI  -0.767 ± 0.23
72. PQVPQCKALYAYDAQDTDELSFNANDIIDIIKEDPSVWWTGRLRGKQGLFPNNYVTKI  -0.781 ± 0.041
73. PQVPQCKALYAYDAQDTDELSFNANDIIDIIKEDPSFWWTGRLRGKQGLFPNNYVTKI  -0.797 ± 0.31
74. PQVPQCKALYAYDAQDTDELSFNANDIIDIIKEDPSGWWTARLRGKQGLFPNNYVTKI  -0.8 ± 0.045
75. PQVPQCKALYAYDAQDTDELSFNANDIIDIIKEDPSYWWTGRLRGKQGLFPNNYVTKI  -0.811 ± 0.26
76. PQVPQCKALYAYDAQDTDELSFNANDIIDIIKEDPSGWWTCRLRGKQGLFPNNYVTKI  -0.813 ± 0.059
77. PQVPQCKALYAYDAQDTDELSFNANDIIDIIKEDPSGWDTGRLRGKQGLFPNNYVTKI  -0.819 ± 0.15
78. PQVPQCKALYAYDAQDTDELSFNANDIIDIIKEDPSGWWTPRLRGKQGLFPNNYVTKI  -0.826 ± 0.18
79. PQVPQCKALYAYDAQDTDELSFNANDIIDIIKEDPSGWWTHRLRGKQGLFPNNYVTKI  -0.83 ± 0.28
80. PQVPQCKALYAYDAQDTDELSFNANDIIDIIKEDPSGWWTNRLRGKQGLFPNNYVTKI  -0.87 ± 0.14
81. PQVPQCKALYAYDAQDTDELSFNANDIIDIIKEDPSGWWTYRLRGKQGLFPNNYVTKI  -0.88 ± 0.45
82. PQVPQCKALYAYDAQDTDELSFNANDIIDIIKEDPPGWWTGRLRGKQGLFPNNYVTKI  -0.883 ± 0.18
83. PQVPQCKALYAYDAQDTDELSFNANDIIDIIKEDPSHWWTGRLRGKQGLFPNNYVTKI  -0.883 ± 0.21
84. PQVPQCKALYAYDAQDTDELSFNANDIIDIIKEDPSGWWTDRLRGKQGLFPNNYVTKI  -0.899 ± 0.11
85. PQVPQCKALYAYDAQDTDELSFNANDIIDIIKEDPSGWWTVRLRGKQGLFPNNYVTKI  -0.9 ± 0.15
86. PQVPQCKALYAYDAQDTDELSFNANDIIDIIKEDPSGWRTGRLRGKQGLFPNNYVTKI  -0.902 ± 0.12
87. PQVPQCKALYAYDAQDTDELSFNANDIIDIIKEDPSGWWTRRLRGKQGLFPNNYVTKI  -0.906 ± 0.1
88. PQVPQCKALYAYDAQDTDELSFNANDIIDIIKEDPSGWWTSRLRGKQGLFPNNYVTKI  -0.998 ± 0.12
89. PQVPQCKALYAYDAQDTDELSFNANDIIDIIKEDPSGWETGRLRGKQGLFPNNYVTKI  -1 ± 0.22
90. PQVPQCKALYAYDAQDTDELSFNANDIIDIIKEDPSGWWPGRLRGKQGLFPNNYVTKI  -1.01 ± 0.071
91. PQVPQCKALYAYDAQDTDELSFNANDIIDIIKEDPSGWWTKRLRGKQGLFPNNYVTKI  -1.03 ± 0.28
